Test results published in US8840891 (RSR, dated 2014).
Where two headings read alike, the source gives them in different places. Values belong to the molecule of their own block, whether it stands above or below them.

Columns and labels:
[1] = target: TSHR coated onto tubes (human) (UniProt P16473); assay: TSHR coated tubes, competitor 125I-M22 IgG
[2] = target: wild type human TSHR (human) (UniProt P16473); assay: cell-based or functional assay
[3] = target: TSHR with Ser281 mutated to Alanine (human) (UniProt P16473); assay: cell-based or functional assay
[4] = target: wild type human TSHR (human) (UniProt P16473); assay: cell-based or functional assay; remark: listed apart in the source
[5] = target: TSHR with Lys183 mutated to Aspartic acid (human) (UniProt P16473); assay: cell-based or functional assay
[6] = target: wild type human TSHR (human) (UniProt P16473); assay: cell-based or functional assay; remark: listed apart in the source
[7] = target: TSHR with Gln235 mutated to Alanine (human) (UniProt P16473); assay: cell-based or functional assay
[8] = target: TSHR with Asp232 mutated to Alanine expressed on CHO cells (human) (UniProt P16473); assay: cell-based or functional assay
[9] = target: wild type human TSHR (thyrotropin receptor) expressed on CHO cells (human) (UniProt P16473); assay: cell-based or functional assay
[10] = target: TSHR with Glu251 mutated to Alanine expressed on CHO cells (human) (UniProt P16473); assay: cell-based or functional assay
[11] = target: TSHR with Lys250 mutated to Alanine expressed on CHO cells (human) (UniProt P16473); assay: cell-based or functional assay
[12] = target: wild type human TSHR (thyrotropin receptor) expressed on CHO cells (human) (UniProt P16473); assay: cell-based or functional assay; remark: listed apart in the source

Molecule: 5C9 IgG (antibody)
% inhib of 125I-M22 IgG binding at 0.01 µg/mL [1]: 5%
% inhib of 125I-M22 IgG binding at 0.1 µg/mL [1]: 6%
% inhib of 125I-M22 IgG binding at 1 µg/mL [1]: 14%
% inhib of 125I-M22 IgG binding at 10 µg/mL [1]: 22%
% inhib of 125I-M22 IgG binding at 100 µg/mL [1]: 53%
cyclic AMP; 5C9 0.01 µg/mL + TSH (fmol/cell well) [2]: 13800
cyclic AMP; 5C9 0.1 µg/mL + TSH (fmol/cell well) [2]: 9070
cyclic AMP; 5C9 1.0 µg/mL + TSH (fmol/cell well) [2]: 3730
cyclic AMP; 5C9 10 µg/mL + TSH (fmol/cell well) [2]: 802
cyclic AMP; 5C9 100 µg only (fmol/cell well) [2]: 201
cyclic AMP; 5C9 100 µg/mL + TSH (fmol/cell well) [2]: 1080
Mutated/wild type (%); 5C9 0.01 µg/mL + TSH [3]: 210%
Mutated/wild type (%); 5C9 0.1 µg/mL + TSH [3]: 172%
Mutated/wild type (%); 5C9 1.0 µg/mL + TSH [3]: 95%
Mutated/wild type (%); 5C9 10 µg/mL + TSH [3]: 193%
Mutated/wild type (%); 5C9 100 µg only [3]: 391%
Mutated/wild type (%); 5C9 100 µg/mL + TSH [3]: 149%
cyclic AMP; 5C9 0.01 µg/mL + TSH (fmol/cell well) [3]: 29000
cyclic AMP; 5C9 0.1 µg/mL + TSH (fmol/cell well) [3]: 15600
cyclic AMP; 5C9 1.0 µg/mL + TSH (fmol/cell well) [3]: 3550
cyclic AMP; 5C9 10 µg/mL + TSH (fmol/cell well) [3]: 1550
cyclic AMP; 5C9 100 µg only (fmol/cell well) [3]: 785
cyclic AMP; 5C9 100 µg/mL + TSH (fmol/cell well) [3]: 1600
cyclic AMP; 5C9 0.01 µg/mL + TSH (fmol/cell well) [4]: 12900
cyclic AMP; 5C9 0.1 µg/mL + TSH (fmol/cell well) [4]: 8580
cyclic AMP; 5C9 1.0 µg/mL + TSH (fmol/cell well) [4]: 3420
cyclic AMP; 5C9 10 µg/mL + TSH (fmol/cell well) [4]: 1110
cyclic AMP; 5C9 100 µg/mL + TSH (fmol/cell well) [4]: 1720
cyclic AMP; 5C9 100 µg/mL only (fmol/cell well) [4]: < 12.5
Mutated/wild type (%); 5C9 0.01 µg/mL + TSH [5]: 160%
Mutated/wild type (%); 5C9 0.1 µg/mL + TSH [5]: 202%
Mutated/wild type (%); 5C9 1.0 µg/mL + TSH [5]: 370%
Mutated/wild type (%); 5C9 10 µg/mL + TSH [5]: 591%
Mutated/wild type (%); 5C9 100 µg/mL + TSH [5]: 524%
cyclic AMP; 5C9 0.01 µg/mL + TSH (fmol/cell well) [5]: 20600
cyclic AMP; 5C9 0.1 µg/mL + TSH (fmol/cell well) [5]: 17300
cyclic AMP; 5C9 1.0 µg/mL + TSH (fmol/cell well) [5]: 12700
cyclic AMP; 5C9 10 µg/mL + TSH (fmol/cell well) [5]: 6590
cyclic AMP; 5C9 100 µg/mL + TSH (fmol/cell well) [5]: 9010
cyclic AMP; 5C9 100 µg/mL only (fmol/cell well) [5]: 54
cyclic AMP; 5C9 0.01 µg/mL + TSH (fmol/cell well) [6]: 7180
cyclic AMP; 5C9 0.1 µg/mL + TSH (fmol/cell well) [6]: 7780
cyclic AMP; 5C9 1.0 µg/mL + TSH (fmol/cell well) [6]: 2540
cyclic AMP; 5C9 10 µg/mL + TSH (fmol/cell well) [6]: 532
cyclic AMP; 5C9 100 µg/mL + TSH (fmol/cell well) [6]: 747
cyclic AMP; 5C9 100 µg/mL only (fmol/cell well) [6]: 119
Mutated/wild type (%); 5C9 0.01 µg/mL + TSH [7]: 244%
Mutated/wild type (%); 5C9 0.1 µg/mL + TSH [7]: 96%
Mutated/wild type (%); 5C9 1.0 µg/mL + TSH [7]: 95%
Mutated/wild type (%); 5C9 10 µg/mL + TSH [7]: 192%
Mutated/wild type (%); 5C9 100 µg/mL + TSH [7]: 97%
Mutated/wild type (%); 5C9 100 µg/mL only [7]: 215%
cyclic AMP; 5C9 0.01 µg/mL + TSH (fmol/cell well) [7]: 17500
cyclic AMP; 5C9 0.1 µg/mL + TSH (fmol/cell well) [7]: 7440
cyclic AMP; 5C9 1.0 µg/mL + TSH (fmol/cell well) [7]: 2420
cyclic AMP; 5C9 10 µg/mL + TSH (fmol/cell well) [7]: 1020
cyclic AMP; 5C9 100 µg/mL + TSH (fmol/cell well) [7]: 727
cyclic AMP; 5C9 100 µg/mL only (fmol/cell well) [7]: 256

Cyclic AMP produced; 5C9 0.01 µg/mL + TSH (fmol/cell well) [8]: 15300
Cyclic AMP produced; 5C9 0.1 µg/mL + TSH (fmol/cell well) [8]: 6560
Cyclic AMP produced; 5C9 1.0 µg/mL + TSH (fmol/cell well) [8]: 1880
Cyclic AMP produced; 5C9 10 µg/mL + TSH (fmol/cell well) [8]: 710
Cyclic AMP produced; 5C9 100 µg/mL + TSH (fmol/cell well) [8]: 55
Cyclic AMP produced; 5C9 100 µg/mL only (fmol/cell well) [8]: 99
Mutated/wild type (%); 5C9 0.01 µg/mL + TSH [8]: 87%
Mutated/wild type (%); 5C9 0.1 µg/mL + TSH [8]: 89%
Mutated/wild type (%); 5C9 1.0 µg/mL + TSH [8]: 176%
Mutated/wild type (%); 5C9 10 µg/mL + TSH [8]: 89%
Mutated/wild type (%); 5C9 100 µg/mL + TSH [8]: 33%
Mutated/wild type (%); 5C9 100 µg/mL only [8]: 19%
Cyclic AMP produced; 5C9 0.01 µg/mL + TSH (fmol/cell well) [9]: 17600
Cyclic AMP produced; 5C9 0.1 µg/mL + TSH (fmol/cell well) [9]: 7330
Cyclic AMP produced; 5C9 1.0 µg/mL + TSH (fmol/cell well) [9]: 1070
Cyclic AMP produced; 5C9 10 µg/mL + TSH (fmol/cell well) [9]: 794
Cyclic AMP produced; 5C9 100 µg/mL + TSH (fmol/cell well) [9]: 166
Cyclic AMP produced; 5C9 100 µg/mL only (fmol/cell well) [9]: 522
Cyclic AMP produced; 5C9 0.01 µg/mL + TSH (fmol/cell well) [10]: 22000
Cyclic AMP produced; 5C9 0.1 µg/mL + TSH (fmol/cell well) [10]: 15500
Cyclic AMP produced; 5C9 1.0 µg/mL + TSH (fmol/cell well) [10]: 5240
Cyclic AMP produced; 5C9 10 µg/mL + TSH (fmol/cell well) [10]: 1880
Cyclic AMP produced; 5C9 100 µg/mL + TSH (fmol/cell well) [10]: 1170
Cyclic AMP produced; 5C9 100 µg/mL only (fmol/cell well) [10]: 406
Mutated/wild type (%); 5C9 0.01 µg/mL + TSH [10]: 104%
Mutated/wild type (%); 5C9 0.1 µg/mL + TSH [10]: 180%
Mutated/wild type (%); 5C9 1.0 µg/mL + TSH [10]: 573%
Mutated/wild type (%); 5C9 10 µg/mL + TSH [10]: 250%
Mutated/wild type (%); 5C9 100 µg/mL + TSH [10]: 236%
Mutated/wild type (%); 5C9 100 µg/mL only [10]: 88%
Cyclic AMP produced; 5C9 0.01 µg/mL + TSH (fmol/cell well) [11]: 14500
Cyclic AMP produced; 5C9 0.1 µg/mL + TSH (fmol/cell well) [11]: 8490
Cyclic AMP produced; 5C9 1.0 µg/mL + TSH (fmol/cell well) [11]: 2570
Cyclic AMP produced; 5C9 10 µg/mL + TSH (fmol/cell well) [11]: 862
Cyclic AMP produced; 5C9 100 µg/mL + TSH (fmol/cell well) [11]: 96
Cyclic AMP produced; 5C9 100 µg/mL only (fmol/cell well) [11]: 448
Mutated/wild type (%); 5C9 0.01 µg/mL + TSH [11]: 95%
Mutated/wild type (%); 5C9 0.1 µg/mL + TSH [11]: 135%
Mutated/wild type (%); 5C9 1.0 µg/mL + TSH [11]: 399%
Mutated/wild type (%); 5C9 10 µg/mL + TSH [11]: 301%
Mutated/wild type (%); 5C9 100 µg/mL + TSH [11]: 61%
Mutated/wild type (%); 5C9 100 µg/mL only [11]: 98%
Cyclic AMP produced; 5C9 0.01 µg/mL + TSH (fmol/cell well) [12]: 15200
Cyclic AMP produced; 5C9 0.1 µg/mL + TSH (fmol/cell well) [12]: 6300
Cyclic AMP produced; 5C9 1.0 µg/mL + TSH (fmol/cell well) [12]: 643
Cyclic AMP produced; 5C9 10 µg/mL + TSH (fmol/cell well) [12]: 286
Cyclic AMP produced; 5C9 100 µg/mL + TSH (fmol/cell well) [12]: 158
Cyclic AMP produced; 5C9 100 µg/mL only (fmol/cell well) [12]: 458
B1: 5C9 IgG (human monoclonal autoantibody to the TSHR) (antibody, from another filing, V domains shown)
VH: EVQLVESGGGLIQPGGSLRLSCAASGFTVSSNYMSWVRQAPGKGLEWVSVTYSGGSTSYADSVKGRFTISRDNSKNTLYLQMNSLRAEDTAVYYCARGGRYCSSISCYARSGCDYWGQGTLVTVSS
VL: AIQMTQSPSSLSASVGDRVTITCRASQSISNYLNWYQQKPGKAPKLLIYAASSLQSGVPSRFSGSGSGTDFTLTISSLQPEDFATYYCQQSYSSPSTTFGQGTKLEIK
